In patent US20220064272A1 (TAUC3 BIOLOGICS, published 2022):
Substitutions are numbered along the chain they refer to. Values joined by “and” are separate entries in the source; they are usually repeats but may differ in a detail not shown here. Identical values can stand only once.

B1: Tau01 HBKJ (antibody, V domains shown)
VH: EVQVVESGGGLVQPGGSLKLSCAASGFTFNTYAMNWVRQASGKGLEWVARIRSKSNNYATYYADSVKGRFTISRDDSKSMVYLQMDSLKTEDTAVYYCVGGGDFWGQGTLVTVSS
VL: DIQMTQSPSSLSASVGDRVTITCRASQEISVYLGWYQQKPGKAPKRLIYGAFSLQSGVPSRFSGSRSGTEFTLTISSLQPEDFATYYCLQYVRYPWTFGGGTKVEIK
notes: human IgG4 kappa (HuG4K)
B2: Tau01 HBKI (antibody, V domains shown)
VH: B1 VH
VL: B1 VL with S53K, F71Y
notes: human IgG4 kappa (HuG4K)
B3: Tau01 HBKE (antibody, V domains shown)
VH: B1 VH
VL: B1 VL with Y36F, S53K
notes: human IgG4 kappa (HuG4K)
B4: HBKH (antibody, V domains shown)
VH: B1 VH
VL: B1 VL with S53K, T69S
notes: humanized variant, HB with KH; also called Tau01 HBKH HuG4K
B5: HBKD (antibody, V domains shown)
VH: B1 VH
VL: B1 VL with G34S, S53K
notes: humanized variant, HB with KD; also called Tau01 HBKD HuG4K
B6: HBKF (antibody, V domains shown)
VH: B1 VH
VL: B1 VL with P44I, S53K
notes: humanized variant, HB with KF; also called Tau01 HBKF HuG4K
B7: Tau01 HBKG (antibody, V domains shown)
VH: B1 VH
VL: B1 VL with S53T
notes: human IgG4 kappa (HuG4K)
B8: Tau01 HCKI (antibody, V domains shown)
VH: B1 VH with E1L, V4L, A49G, D64A, V81A
VL: B1 VL with S53K, F71Y
notes: human IgG4 kappa (HuG4K)
B9: Tau01 HCKG (antibody, V domains shown)
VH: B1 VH with E1L, V4L, A49G, D64A, V81A
VL: B1 VL with S53T
notes: human IgG4 kappa (HuG4K)
B10: Tau01 HCKE (antibody, V domains shown)
VH: B1 VH with E1L, V4L, A49G, D64A, V81A
VL: B1 VL with Y36F, S53K
notes: human IgG4 kappa (HuG4K)
B11: Tau01 HCKJ (antibody, V domains shown)
VH: B1 VH with E1L, V4L, A49G, D64A, V81A
VL: B1 VL
notes: human IgG4 kappa (HuG4K)
B12: HCKD (antibody, V domains shown)
VH: B1 VH with E1L, V4L, A49G, D64A, V81A
VL: B1 VL with G34S, S53K
notes: humanized variant, HC with KD; also called Tau01 HCKD HuG4K
B13: HCKF (antibody, V domains shown)
VH: B1 VH with E1L, V4L, A49G, D64A, V81A
VL: B1 VL with P44I, S53K
notes: humanized variant, HC with KF; also called Tau01 HCKF HuG4K
B14: HCKH (antibody, V domains shown)
VH: B1 VH with E1L, V4L, A49G, D64A, V81A
VL: B1 VL with S53K, T69S
notes: humanized variant, HC with KH; also called Tau01 HCKH HuG4K
B15: Tau01 HMKI (antibody, V domains shown)
VH: B1 VH with E1L, V4L, D64A, V81A
VL: B1 VL with S53K, F71Y
notes: human IgG4 kappa (HuG4K)
B16: Tau01 HMKG (antibody, V domains shown)
VH: B1 VH with E1L, V4L, D64A, V81A
VL: B1 VL with S53T
notes: human IgG4 kappa (HuG4K)
B17: Tau01 HMKJ (antibody, V domains shown)
VH: B1 VH with E1L, V4L, D64A, V81A
VL: B1 VL
notes: human IgG4 kappa (HuG4K)
B18: Tau01 HMKB (antibody, V domains shown)
VH: B1 VH with E1L, V4L, D64A, V81A
VL: B1 VL with G34S, Y36F, P44I, S53T, T69S, F71Y
notes: human IgG4 kappa (HuG4K)
B19: Tau01 HMKA (antibody, V domains shown)
VH: B1 VH with E1L, V4L, D64A, V81A
VL: B1 VL with S53K
notes: human IgG4 kappa (HuG4K)
B20: Tau01 HNKG (antibody, V domains shown)
VH: B1 VH with E1L, A49G, D64A, V81A
VL: B1 VL with S53T
notes: human IgG4 kappa (HuG4K)
B21: Tau01 HNKI (antibody, V domains shown)
VH: B1 VH with E1L, A49G, D64A, V81A
VL: B1 VL with S53K, F71Y
notes: human IgG4 kappa (HuG4K)
B22: Tau01 HNKA (antibody, V domains shown)
VH: B1 VH with E1L, A49G, D64A, V81A
VL: B1 VL with S53K
notes: human IgG4 kappa (HuG4K)
B23: Tau01 HNKB (antibody, V domains shown)
VH: B1 VH with E1L, A49G, D64A, V81A
VL: B1 VL with G34S, Y36F, P44I, S53T, T69S, F71Y
notes: human IgG4 kappa (HuG4K)
B24: Tau01 HNKJ (antibody, V domains shown)
VH: B1 VH with E1L, A49G, D64A, V81A
VL: B1 VL
notes: human IgG4 kappa (HuG4K)
B25: Tau01 HMKM HuG4k (antibody, V domains shown)
VH: B1 VH with E1L, V4L, D64A, V81A
VL: B1 VL with G34S, Y36F, P44I, F71Y
notes: human IgG4 kappa (HuG4K)
B26: Tau01 HCKL (antibody, V domains shown)
VH: B1 VH with E1L, V4L, A49G, D64A, V81A
VL: B1 VL with G34S, Y36F, P44I, S53K, F71Y
notes: human IgG4 kappa (HuG4K)
B27: Tau01 HCKO (antibody, V domains shown)
VH: B1 VH with E1L, V4L, A49G, D64A, V81A
VL: B1 VL with F71Y
notes: human IgG4 kappa (HuG4K)
B28: Tau01 HCKP (antibody, V domains shown)
VH: B1 VH with E1L, V4L, A49G, D64A, V81A
VL: B1 VL with Y36F, S53K, F71Y
notes: human IgG4 kappa (HuG4K)
B29: Tau01 HCKN (antibody, V domains shown)
VH: B1 VH with E1L, V4L, A49G, D64A, V81A
VL: B1 VL with S53T, F71Y
notes: human IgG4 kappa (HuG4K)
B30: Tau01 HMKC (antibody, V domains shown)
VH: B1 VH with E1L, V4L, D64A, V81A
VL: B1 VL with G34S, Y36F, S53K, F71Y
notes: human IgG4 kappa (HuG4K)
B31: Tau01 HMKL (antibody, V domains shown)
VH: B1 VH with E1L, V4L, D64A, V81A
VL: B1 VL with G34S, Y36F, P44I, S53K, F71Y
notes: human IgG4 kappa (HuG4K)

The binders below were run against T1, TauC3 (C-terminally truncated tau fragment ending at aspartate 421 of htau40) (human, UniProt P10636 1-738) (assay: binding ELISA on coated TauC3, OD650).
T1 construct: Generated and purified by Genscript; also called Human TauC3; recombinant TauC3 protein
Summary of the method: (§1)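 EC50 values come from antibody concentration-response curves in a binding ELISA on coated TauC3 antigen. The chimeric or humanized IgG4κ antibodies were produced in ExpiCHO cells, and binding was measured as absorbance at 650 nm.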

T1 sequence (P10636 other isoform, or with tags, fused parts or gaps): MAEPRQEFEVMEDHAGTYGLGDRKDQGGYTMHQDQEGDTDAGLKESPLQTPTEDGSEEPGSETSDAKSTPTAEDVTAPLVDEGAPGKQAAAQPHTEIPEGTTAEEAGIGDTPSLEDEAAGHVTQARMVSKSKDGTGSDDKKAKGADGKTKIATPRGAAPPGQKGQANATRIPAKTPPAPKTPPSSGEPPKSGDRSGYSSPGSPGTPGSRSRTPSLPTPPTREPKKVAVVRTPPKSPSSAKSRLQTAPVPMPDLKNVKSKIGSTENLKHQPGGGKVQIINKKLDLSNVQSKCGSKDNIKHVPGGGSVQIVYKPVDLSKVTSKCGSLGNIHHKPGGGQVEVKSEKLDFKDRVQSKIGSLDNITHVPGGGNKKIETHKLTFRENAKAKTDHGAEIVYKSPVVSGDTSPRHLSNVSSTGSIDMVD

| EC50 [nM] | Binder |
| --- | --- |
| 0.811 | B1 |
| 0.705 | B2 |
| 0.915 | B3 |
| 0.807 | B4 |
| 3.04 | B5 |
| 0.786 | B6 |
| 0.761 | B7 |

Target: T1, TauC3 (C-terminally truncated tau …)
Assay: binding ELISA on coated TauC3, OD650
Remark: another data set of the same source
Summary of the method: as §1

| EC50 [nM] | Binder |
| --- | --- |
| 0.741 | B8 |
| 0.98 | B9 |
| 1.24 | B10 |
| 1.01 | B11 |
| 2.02 | B12 |
| 2.25 | B13 |
| 1.03 | B14 |

Target: T1, TauC3 (C-terminally truncated tau …)
Assay: binding ELISA on coated TauC3, OD650
Remark: another data set of the same source
Summary of the method: as §1

| EC50 [nM] | Binder |
| --- | --- |
| 0.549 | B15 |
| 0.543 | B16 |
| 0.522 | B17 |
| 0.412 | B18 |
| 0.556 | B19 |

Target: T1, TauC3 (C-terminally truncated tau …)
Assay: binding ELISA on coated TauC3, OD650
Remark: another data set of the same source
Summary of the method: as §1

| EC50 [nM] | Binder |
| --- | --- |
| 1.08 | B20 |
| 0.765 | B21 |
| 1.09 | B22 |
| 0.59 | B23 |
| 2.56 | B24 |

Each binder was assayed against T1, TauC3 (C-terminally truncated tau …) (assay: SPR (Biacore) kinetics, TauC3 amine-coupled on CM5, 1:1 global fit).
Summary of the method: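 Association rate, dissociation rate and Kd were derived by global fitting of surface plasmon resonance (Biacore) data. The fit used a 1:1 model, with a concentration series of each purified antibody flowed over purified antigen amine-coupled to a CM5 chip.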

| Kd [nM] | koff [s⁻¹] | kon [M⁻¹ s⁻¹] | Binder |
| --- | --- | --- | --- |
| 0.11 | 0.0181 | 1.65e+08 | B25 |

Each binder was assayed against T1, TauC3 (C-terminally truncated tau …) (assay: binding ELISA on coated TauC3, OD650; left table (HC variants)).
Summary of the method: as §1

| EC50 [nM] | Binder |
| --- | --- |
| 0.655 | B8 |
| 0.573 | B9 |
| 0.941 | B10 |
| 0.766 | B11 |
| 0.835 | B26 |
| 0.537 | B27 |
| 0.821 | B28 |
| 0.574 | B29 |

These binders were tested against T1, TauC3 (C-terminally truncated tau …) (assay: binding ELISA on coated TauC3, OD650; right table (HM variants)).
Summary of the method: as §1

| EC50 | Binder |
| --- | --- |
| 0.474 nM and 0.458 nM | B15 |
| 0.573 nM | B9 |
| 0.515 nM and 0.607 nM | B16 |
| 0.433 nM and 0.718 nM | B30 |
| 0.433 nM | B17 |
| 0.641 nM and 0.462 nM | B19 |
| 0.47 nM | B31 |

What follows are binders tested against T1, TauC3 (C-terminally truncated tau …) (assay: Biacore kinetics, TauC3 amine-coupled on CM5, antibody series, 1:1 global fit).
Excerpt: To determine the affinity of the binding interactions, a biacore kinetic assay was developed which involved immobilizing TauC3 on a CM5 chip via amine coupling and injecting a concentration series of the respective antibody over it.

| koff [s⁻¹] | Binder |
| --- | --- |
| 0.0181 | B25 |

What follows are binders tested against T1, TauC3 (C-terminally truncated tau …) (assay: Biacore off-rate ranking, TauC3 amine-coupled on CM5, one antibody concentration; one-phase exponential decay fit).
Method: (§2) To further evaluate the binding data observed on the Octet, an off-rate ranking experiment was performed on the Biacore 200 instrument. Biacore offers greater selectivity than the Octet and facilitated the immobilization of TauC3 onto a CM5 chip via amine coupling which stabilizes the antigen. This produces higher quality data with stable baselines and good reproducible responses. Once TauC3 is immobilized, one concentration (5 nM) of antibody is added, followed by a dissociation and regeneration step (Section 8.20). The off-rates were fitted using a two-phase decay model (FIG. 25B) or a one phase decay fitting only the second off-rate (FIG. 25A). The candidates were then ranked based on the off-rates obtained using the fits and compared. The data agreed with the Octet results (albeit with a different ranking order), highlighting Tau01 HMKM, HMKO, HMKP, HMKN and HMKE as the humanized variants with the slowest off-rates. The lack of binding of FL Tau to chimeric and a humanized candidate was also confirmed by Biacore by loading the antibody onto a Protein G chip and adding 250 nM FL Tau.

| koff [s⁻¹] | Binder |
| --- | --- |
| 0.00181 | B15 |
| 0.000453 | B16 |
| 0.000843 | B30 |
| 0.000264 | B25 |
| 0.00136 | B17 |
| 0.00062 | B18 |
| 0.000882 | B19 |

Each binder was assayed against T1, TauC3 (C-terminally truncated tau …) (assay: Biacore off-rate ranking, TauC3 amine-coupled on CM5, one antibody concentration; two-phase decay fit, slow phase).
Set-up: unit not given here
Method: as §2

| Kslow | Binder |
| --- | --- |
| 0.00179 | B15 |
| 0.000384 | B16 |
| 0.000711 | B30 |
| 0.000553 | B25 |
| 0.00123 | B17 |
| 0.000138 | B18 |
| 0.000815 | B19 |
